In the supplement of paper PMC10567573 one finds protein stability index data, which are given here for 94 variants.

B1: LOC100129726 (parent)
chain: AKAADSPTRNDLESGLGHFSLRVH
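Note: lentivirally expressed fusions sorted by FACS into six bins by GFP to DsRed ratio, PSI derived from sequencing read proportions per bin multiplied by bin number.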

The variants in this data set derive from B1. Put plainly: protein stability index of a GFP-peptide fusion (GPS, HEK-293T) (PSI 1-6); higher = more stable. As to conditions: c terminus: a fixed tail appended.
As for AKAADSPMRNDLESGLGHFSLRVH, the protein stability index amounted to 2.12.

Regarding AKAADSPFRNDLESGLGHFSLRVH, the protein stability index was 2.35.

Regarding AKAADSPWRNDLESGLGHFSLRVH, the protein stability index came out at 1.98.

In the case of AKAADSPKRNDLESGLGHFSLRVH, the protein stability index amounted to 2.73.

For AKAADSPTRFDLESGLGHFSLRVH, the protein stability index was found to be 2.38.

Take AKAADSPTRPDLESGLGHFSLRVH: the protein stability index stood at 4.

As for AKAADSPTRNDLEGGLGHFSLRVH, the protein stability index was determined as 2.9.

In the case of AKAADSPTRNDLERGLGHFSLRVH, the protein stability index was found to be 2.78.

Turning to AKAADSPTRNDLEQGLGHFSLRVH, the protein stability index was determined as 2.94.

AKAADSPTRNDLEWGLGHFSLRVH: the protein stability index turned out to be 1.36.

Regarding AKAADSPTRNDLEFGLGHFSLRVH, the protein stability index was 2.25.

Take AKAADSPTRNDLESGLGHFNLRVH: the protein stability index came out at 3.45.

For the variant AKAADSPTRNDLESGLGHFFLRVH, the protein stability index was 2.05.

On to AKAADSPTRNDLESGLGHFVLRVH, for which the protein stability index amounted to 2.21.

In the case of AYAADSPTRNDLESGLGHFSLRVH, the protein stability index turned out to be 2.49.

As for AQAADSPTRNDLESGLGHFSLRVH, the protein stability index worked out at 2.69.

With AHAADSPTRNDLESGLGHFSLRVH, the protein stability index was 3.38.

With AIAADSPTRNDLESGLGHFSLRVH, the protein stability index was determined as 3.21.

Turning to ACAADSPTRNDLESGLGHFSLRVH, the protein stability index is 2.05.

For ANAADSPTRNDLESGLGHFSLRVH, the protein stability index came to 2.88.

With AKAADSPTRNDDESGLGHFSLRVH, the protein stability index stood at 3.9.

Consider AKAADSPTRNDVESGLGHFSLRVH, for which the protein stability index was 3.62.

Consider AKAADSPTRNDSESGLGHFSLRVH, for which the protein stability index was 4.46.

For the variant AKAADSPTRNDFESGLGHFSLRVH, the protein stability index stood at 3.06.

For AKAADSPTRNDAESGLGHFSLRVH, the protein stability index came out at 3.47.

Consider AKAADYPTRNDLESGLGHFSLRVH, for which the protein stability index stood at 2.26.

As for AKAADPPTRNDLESGLGHFSLRVH, the protein stability index worked out at 3.16.

Consider AKAADIPTRNDLESGLGHFSLRVH, for which the protein stability index is 2.53.

For the variant AKAADSPTDNDLESGLGHFSLRVH, the protein stability index is 3.64.

For AKAADSFTRNDLESGLGHFSLRVH, the protein stability index turned out to be 2.33.

As to AKAADSYTRNDLESGLGHFSLRVH, the protein stability index came to 2.18.

In the case of AKAADSQTRNDLESGLGHFSLRVH, the protein stability index was determined as 3.41.

Take AKAADSCTRNDLESGLGHFSLRVH: the protein stability index was determined as 2.16.

Take AKAADSPTRNYLESGLGHFSLRVH: the protein stability index was 2.25.

As to AKAADSPTRNILESGLGHFSLRVH, the protein stability index was 1.96.

For AKAADSPTRNLLESGLGHFSLRVH, the protein stability index stood at 1.9.

As to AKAADSPTRNGLESGLGHFSLRVH, the protein stability index amounted to 2.33.

For the variant AKAADSPTRNWLESGLGHFSLRVH, the protein stability index was found to be 2.56.

For AKAADSPTRNDLESGMGHFSLRVH, the protein stability index is 3.26.

Take AKAADSPTRNDLESGFGHFSLRVH: the protein stability index is 2.57.

On to AKAADSPTRNDLESGPGHFSLRVH, for which the protein stability index is 3.12.

On to AKAADSPTRNDLESGLGKFSLRVH, for which the protein stability index was found to be 3.15.

On to AKAADSPTRNDLESGLGMFSLRVH, for which the protein stability index was found to be 2.29.

Consider AKRADSPTRNDLESGLGHFSLRVH, for which the protein stability index turned out to be 3.58.

As to AKCADSPTRNDLESGLGHFSLRVH, the protein stability index was determined as 2.73.

Consider AKGADSPTRNDLESGLGHFSLRVH, for which the protein stability index is 3.42.

AKPADSPTRNDLESGLGHFSLRVH: the protein stability index was found to be 3.04.

With AKTADSPTRNDLESGLGHFSLRVH, the protein stability index worked out at 2.58.

AKHADSPTRNDLESGLGHFSLRVH: the protein stability index was found to be 3.

On to AKAADSPTRNDLESGLDHFSLRVH, for which the protein stability index was determined as 3.82.

As for AKAADSPTRNDLESGLSHFSLRVH, the protein stability index is 2.84.

On to AKAADSPTRNDLESGLFHFSLRVH, for which the protein stability index came out at 2.08.

For the variant AKAADSPTRNDLESGLTHFSLRVH, the protein stability index was 2.56.

As for AKAADSPTRNDLESGLMHFSLRVH, the protein stability index was 2.27.

With AKAADSPTRNDLESGLGHFSLRVT, the protein stability index came out at 3.41.

Take AKAADSPTRNDLESGLGHFSLRVP: the protein stability index was found to be 3.73.

In the case of AKAADSPTRNDLESGLGHFSLRVW, the protein stability index amounted to 2.09.

In the case of AKAADSPTRNDLESGLGHFSLRVQ, the protein stability index was 3.53.

Take AKAADSPTRNDLESGLGHFSLRVV: the protein stability index was 2.61.

With AKAADSPTRNDLESGLGHFSLRVE, the protein stability index amounted to 3.75.

For the variant AKAADSPTRNDLESGLGHFSLRVC, the protein stability index was 2.49.

With AKAADSPTRNDLESGLGHFSLRVI, the protein stability index was found to be 1.9.

As for AKAADSPTRNDLESQLGHFSLRVH, the protein stability index was found to be 3.81.

For the variant AKAADSPTRNDLESELGHFSLRVH, the protein stability index was determined as 2.82.

For AKAADSPTRNDLESCLGHFSLRVH, the protein stability index came to 2.18.

Regarding AKAADSPTRNDLESPLGHFSLRVH, the protein stability index is 2.79.

For AKAADSPTRNDLESTLGHFSLRVH, the protein stability index was found to be 2.67.

AKAADSPTRNDLESFLGHFSLRVH: the protein stability index was 1.74.

Turning to AKAADSPTRNDLESGLGHFSLWVH, the protein stability index was 2.4.

With PKAADSPTRNDLESGLGHFSLRVH, the protein stability index stood at 3.17.

On to FKAADSPTRNDLESGLGHFSLRVH, for which the protein stability index was 2.6.

AKAADSPTRNDLESGLGHFSLRAH: the protein stability index is 3.67.

Turning to AKAADSPTRNDLESGLGHFSLRSH, the protein stability index stood at 3.48.

For AKAMDSPTRNDLESGLGHFSLRVH, the protein stability index turned out to be 2.54.

Consider AKASDSPTRNDLESGLGHFSLRVH, for which the protein stability index turned out to be 3.1.

With AKARDSPTRNDLESGLGHFSLRVH, the protein stability index worked out at 2.81.

AKAAKSPTRNDLESGLGHFSLRVH: the protein stability index worked out at 3.19.

As to AKAADSPTRNDLESGLGHFSPRVH, the protein stability index turned out to be 4.25.

As for AKAADSPTRNDLESGLGHFSSRVH, the protein stability index was determined as 4.39.

In the case of AKAADSPTRNDLESGLGHFSARVH, the protein stability index came out at 4.25.

AKAADSPTRNDLESGLGHFSVRVH: the protein stability index was found to be 3.84.

AKAADSPTRNDLESGLGHFSTRVH: the protein stability index was 4.08.

AKAADSPTRNDLESGLGHFSKRVH: the protein stability index worked out at 3.5.

Consider AKAADSPTRNDLESGLGHFSERVH, for which the protein stability index was found to be 4.38.

Take AKAADSPTRNDLESGLGHVSLRVH: the protein stability index worked out at 3.58.

With AKAADSPTRNDLESGLGHTSLRVH, the protein stability index amounted to 4.66.

Regarding AKAADSPTRNDLESGLGHQSLRVH, the protein stability index worked out at 4.33.

Regarding AKAADSPTRNDLESGLGHMSLRVH, the protein stability index stood at 3.69.

On to AKAADSPTRNDLESGLGHASLRVH, for which the protein stability index came out at 3.95.

On to AKAADSPTRNDLQSGLGHFSLRVH, for which the protein stability index was 2.3.

Take AKAADSPTRNDLGSGLGHFSLRVH: the protein stability index was found to be 2.02.

For the variant AKAADSPTRNDLPSGLGHFSLRVH, the protein stability index is 2.57.

Take AKAADSPTRNDLISGLGHFSLRVH: the protein stability index came to 2.32.

Consider AKAADSPTRNDLMSGLGHFSLRVH, for which the protein stability index is 2.15.
